Laboratory results reported in patent US20240382606A1.

Target: CD8 co-receptors on CD8+ T cells (OT-1 mouse splenocytes) (mouse) (UniProt P01731)
Assay: flow cytometry, noncognate APNs on OT-1 CD8+ splenocytes, in vitro

UniProt P01731, sequence (P01731 28-247, chain 1 of 2): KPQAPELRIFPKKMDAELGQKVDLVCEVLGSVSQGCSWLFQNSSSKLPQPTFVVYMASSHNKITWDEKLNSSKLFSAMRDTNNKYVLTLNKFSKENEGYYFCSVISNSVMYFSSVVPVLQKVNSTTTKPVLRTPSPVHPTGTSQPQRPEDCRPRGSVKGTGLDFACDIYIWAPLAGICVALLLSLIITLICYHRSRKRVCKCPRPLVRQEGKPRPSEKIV
UniProt P01731, sequence (P10300 22-213, chain 2 of 2, further chain): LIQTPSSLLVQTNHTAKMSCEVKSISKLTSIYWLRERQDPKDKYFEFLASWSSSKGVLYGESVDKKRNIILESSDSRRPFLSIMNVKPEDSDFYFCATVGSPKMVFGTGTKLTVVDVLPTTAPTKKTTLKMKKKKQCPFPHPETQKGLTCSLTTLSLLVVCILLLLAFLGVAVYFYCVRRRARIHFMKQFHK

Substance: NS2/K^b antigen-presenting nanoparticle (APN): NS2 peptide RTFSFQLI on H2-K^b on an mRNA lipid nanoparticle (peptide-MHC)
- percent cross-reactivity: 10%
